According to IntAct's records for PubMed 24351927:

What was measured:
[1] = target: 1433z_human YWHAZ (UniProt P63104)
[2] = target: 1433t_human YWHAQ (UniProt P27348)
[3] = target: 1433g_rat Ywhag (UniProt P61983)
[4] = target: 1433g_rat Ywhag (UniProt P61983); remark: listed apart in the source

UniProt P61983, sequence (P61983 whole entry): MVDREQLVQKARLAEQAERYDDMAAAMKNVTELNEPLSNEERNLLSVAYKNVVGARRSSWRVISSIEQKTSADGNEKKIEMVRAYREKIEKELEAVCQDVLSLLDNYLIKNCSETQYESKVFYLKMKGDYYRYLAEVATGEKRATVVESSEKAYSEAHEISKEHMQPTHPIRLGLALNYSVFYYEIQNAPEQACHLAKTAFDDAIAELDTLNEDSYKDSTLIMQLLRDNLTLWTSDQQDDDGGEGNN
UniProt P27348, sequence (P27348 whole entry): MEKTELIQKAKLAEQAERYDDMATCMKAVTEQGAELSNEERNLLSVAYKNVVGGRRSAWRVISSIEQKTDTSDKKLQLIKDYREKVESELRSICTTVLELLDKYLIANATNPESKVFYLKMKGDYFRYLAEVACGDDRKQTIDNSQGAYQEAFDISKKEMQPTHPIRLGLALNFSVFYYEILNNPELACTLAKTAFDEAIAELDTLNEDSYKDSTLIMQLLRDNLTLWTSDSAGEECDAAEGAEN
UniProt P63104, sequence (P63104 whole entry): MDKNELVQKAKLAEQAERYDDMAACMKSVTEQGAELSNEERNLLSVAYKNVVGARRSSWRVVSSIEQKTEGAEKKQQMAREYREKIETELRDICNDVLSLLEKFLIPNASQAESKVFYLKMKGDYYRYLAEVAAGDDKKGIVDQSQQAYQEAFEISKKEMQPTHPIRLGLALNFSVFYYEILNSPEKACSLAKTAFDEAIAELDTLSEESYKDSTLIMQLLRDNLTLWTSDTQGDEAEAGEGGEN

| effect of a mutation on the interaction [1] | effect of a mutation on the interaction [2] | effect of a mutation on the interaction [3] | effect of a mutation on the interaction [4] | Substance |
| --- | --- | --- | --- | --- |
| disrupting interaction | disrupting interaction | disrupting interaction | – | Leucine-rich repeat serine/threonine-protein kinase 2 (Homo sapiens), Q5S007 R1441G |
| disrupting interaction | disrupting interaction | – | disrupting interaction | Leucine-rich repeat serine/threonine-protein kinase 2 (Homo sapiens), Q5S007 S1444A |
| – | – | – | disrupting interaction | Leucine-rich repeat serine/threonine-protein kinase 2 (Homo sapiens), Q5S007 S1443A;S1444A |
